T1: GST-PIL15 (Oryza sativa, UniProt Q0JNI9 1-637)
T1 sequence: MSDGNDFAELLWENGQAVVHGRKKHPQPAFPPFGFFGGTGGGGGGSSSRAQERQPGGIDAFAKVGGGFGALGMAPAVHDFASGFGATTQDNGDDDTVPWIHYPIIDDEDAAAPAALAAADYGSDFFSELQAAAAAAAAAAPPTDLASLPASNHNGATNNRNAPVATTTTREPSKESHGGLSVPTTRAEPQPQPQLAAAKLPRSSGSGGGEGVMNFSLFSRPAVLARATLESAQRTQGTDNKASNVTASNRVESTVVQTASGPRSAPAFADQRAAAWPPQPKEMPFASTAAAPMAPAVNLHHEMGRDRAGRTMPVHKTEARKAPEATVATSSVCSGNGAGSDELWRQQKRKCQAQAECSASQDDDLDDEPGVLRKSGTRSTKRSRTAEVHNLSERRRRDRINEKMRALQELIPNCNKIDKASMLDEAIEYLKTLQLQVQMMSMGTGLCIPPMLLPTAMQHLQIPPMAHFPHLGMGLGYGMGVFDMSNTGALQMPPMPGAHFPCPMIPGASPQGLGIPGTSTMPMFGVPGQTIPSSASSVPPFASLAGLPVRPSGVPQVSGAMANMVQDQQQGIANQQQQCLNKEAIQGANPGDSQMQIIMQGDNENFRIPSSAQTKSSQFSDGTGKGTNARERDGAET

B1: pDEP1-PBE (dsDNA)
DNA 1: GATGCACACATGAAGATCGT
DNA 2: ACGATCTTCATGTGTGCATC
B2: pAMT1;2-PBE (dsDNA)
DNA 1: ACCAAAACACATGAAATCCT
DNA 2: AGGATTTCATGTGTTTTGGT
B3: pNRT1.1B-PBE (dsDNA)
DNA 1: ACACACACATGTGTTGTAAT
DNA 2: ATTACAACACATGTGTGTGT

The data set addresses T1, GST-PIL15. Description: EMSA; Chemiluminescent EMSA kit (Thermo Fisher); buffer, salt, pH and temperature not stated. As to conditions: protein: recombinant; tags: N-terminal GST (pGEX-5X-1); chain copies: 2; label: biotin (ends); blunt.
Take B1: the binding result is “binds”. B2: the binding result was “binds”.

For the molecule B3, the binding result is “binds”.

The record behind these values is paper PMC12392934, “TCP19 regulates nitrogen‐dependent sheath blight susceptibility by modulating nitrogen uptake and signalling in rice”.
